Assay results published in article doi:10.1101/2024.05.27.596032 (bioRxiv, 2024).
Values joined by “and” are separate entries in the source; they are usually repeats but may differ in a detail not shown here. Identical values can stand only once. Like-named read-outs stand apart in the source and are kept apart here.

B1: Streptococcus pneumoniae NrdR (natural protein, Streptococcus pneumoniae TIGR4, UniProt P67318 1-157, looked up)
chain: MRCPKCGATKSSVIDSRQAEEGNTIRRRRECDECQHRFTTYERVEERTLVVVKKDGTREQFSRDKIFNGIIRSAQKRPVSSDEINMVVNRIEQKLRGRNENEIQSEDIGSLVMEELAELDEITYVRFASVYRSFKDVSELESLLQQITQSSKKKKER

Tests used:
Test in all cases: SEC
[1] = target: Listeria monocytogenes NrdR (Listeria monocytogenes serotype 1/2a str, S10403S) (UniProt B8DHI6)
[2] = target: Listeria monocytogenes NrdR (Listeria monocytogenes serotype 1/2a str, S10403S) (UniProt B8DHI6); remark: listed apart in the source
[3] = target: Listeria monocytogenes NrdR (Listeria monocytogenes serotype 1/2a str, S10403S) (UniProt B8DHI6); remark: listed apart in the source
[4] = target: Listeria monocytogenes NrdR (Listeria monocytogenes serotype 1/2a str, S10403S) (UniProt B8DHI6); remark: listed apart in the source
[5] = target: Listeria monocytogenes NrdR (Listeria monocytogenes serotype 1/2a str, S10403S) (UniProt B8DHI6); remark: listed apart in the source
[6] = target: Listeria monocytogenes NrdR (Listeria monocytogenes serotype 1/2a str, S10403S) (UniProt B8DHI6); remark: listed apart in the source
SEC = target: the molecule itself

| Molecule | stoichiometry N [1] | stoichiometry N [2] | stoichiometry N [3] | stoichiometry N [4] | stoichiometry N [5] | stoichiometry N [6] | stoichiometry N (SEC) |
| --- | --- | --- | --- | --- | --- | --- | --- |
| Listeria monocytogenes NrdR (from UniProt B8DHI6 1-154) (natural protein) | 4 | 8 | 4 | 2 | 4 | 4 | – |
| B1 | – | – | – | – | – | – | 2 and 4 |
